Results taken from paper PMC539286.

Target: HTLV receptor (Glut1, the ubiquitous vertebrate glucose transporter) on human cells (human (endogenous in 293T)) (UniProt P11166)
Sequence of UniProt P11166 (P11166 whole entry): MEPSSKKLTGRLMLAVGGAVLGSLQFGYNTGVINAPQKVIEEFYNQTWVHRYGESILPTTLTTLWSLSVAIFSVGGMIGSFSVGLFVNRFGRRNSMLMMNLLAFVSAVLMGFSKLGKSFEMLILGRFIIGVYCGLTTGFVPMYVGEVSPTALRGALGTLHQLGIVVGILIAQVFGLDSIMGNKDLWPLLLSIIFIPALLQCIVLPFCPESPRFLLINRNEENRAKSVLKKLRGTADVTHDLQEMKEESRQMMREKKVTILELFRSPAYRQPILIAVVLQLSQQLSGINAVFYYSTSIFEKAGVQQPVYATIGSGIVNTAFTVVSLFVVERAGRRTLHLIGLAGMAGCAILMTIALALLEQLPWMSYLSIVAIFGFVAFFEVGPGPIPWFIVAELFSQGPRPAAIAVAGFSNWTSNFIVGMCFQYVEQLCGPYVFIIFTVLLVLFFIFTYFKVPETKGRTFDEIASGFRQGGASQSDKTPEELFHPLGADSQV

“H1(Y114A)SU, H1_(215)SU subdomain with Tyr114 mutated to Ala (from UniProt P23064 21-215) (Fc fusion)” was tested, and the HTLV Env-mediated cell fusion with target cells that express the mutant, percent of control fusion was 56 % of control and the MLV(HTLV) pseudotype infection of target cells that express the mutant, percent of control infection was 46 % of control.
